Reference: the supplement of paper PMC9170038

Tested on: MS2 coat protein
Assay: apparent KD of MS2 coat protein; designed switch direction (-1 OFF switch, 1 ON switch): -1; higher = weaker reporter binding
In short: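 For each design, the apparent KD is the median over clusters of curves fitted to normalised cluster fluorescence. Clusters held RNA switches with common flanks, transcribed on Illumina chips by stalled E. coli RNA polymerase. These were titrated with SNAP-549-labelled MS2 coat protein, doubling from 0.7 or 1.5 nM to 3 µM, without input, with 200 uM small-molecule ligand, or with an oligonucleotide input.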

[1] = input ligand: microRNA oligo, concentration not stated
[2] = Eterna round: R95, input ligand: microRNA oligo, concentration not stated
[3] = Eterna round: R95, input ligand: FMN 200 uM
[4] = Eterna round: R95, input ligand: none

Sequence	apparent KD of MS2 coat protein (input ligand: FMN 200 uM)	apparent KD of MS2 coat protein [1]	apparent KD of MS2 coat protein (input ligand: none)	apparent KD of MS2 coat protein [2]	apparent KD of MS2 coat protein [3]	apparent KD of MS2 coat protein [4]
CUUGUUUAUGUAGGAUAUGCCUGGCGUGCCUUUGCAGAAGGACAUGAGGAUCACCCAUGUAACAUGAGGCUUACCCUUGUCGCC [salish99_ExNG1_r04_119] (Eterna round: R96, puzzle: Exclusion NG 1)	0.0806 µM	0.0561 µM	0.0689 µM			
AUGUUACUCUGAGGAUAUUGUUUAUUCUUCUCACAUGAGGAUCACCCAUGUUUCCAUGUUAACCGCAAGAAGGCAGUUUUGUUU [JR_ExcNG2_Sub029] (Eterna round: R96, puzzle: Exclusion NG 2)	0.0461 µM	0.0245 µM	0.0363 µM			
UUUGAUUAUGUGAGGAUAUACUGUUUGUAUUGAUUGUAGAAGGUACAUGAGGAUCACCCAUGUUUUGUAUUUAU [JR_BME4_Sub036] (puzzle: Brourd's mod of Exclusion 4)				0.0171 µM		
CCAGCGUAUGUGAGGAUAUGCUGGUCCUUGGAUCAGCAGAAGGCACAUGAGGAUCACCCAUGUGAGAGCGUUGG [JL bmx4 3.37] (puzzle: Brourd's mod of Exclusion 4)				0.0214 µM		
CUUAGACAUGAGGAUCACCCAUGUGAGGAUAUGAUACAAUCAUACUAACAUAAUCACAUCAGAAGGCACAUAUG [Mat - Mod of JL D68] (puzzle: Exclusion 1)				0.0558 µM	0.0346 µM	0.0524 µM
AAGGUACGAGGAUAUACAUAGAUACAGACACAUGUGCAUGUACAUGAGGAUCACCCAUGUAGAAGGCGUAUAUA [AJ 18] (Eterna round: R96, puzzle: Exclusion 2)	0.248 µM	0.0502 µM	0.0518 µM			
AGUAACUAUCACGAAAGUGAUAGUUACACAAGUGAAUAAACAUGAGGAUCACCCAUGUCCUCAUUUGCUCGUUUUAU [Sensor 3 - 17] (puzzle: Sensor v3, turn-off variant 2)				0.553 µM	0.486 µM	0.4 µM
UCGCUCCGUGUAGGAUAUCGUUGUAUUAUGCGGCGAGAAGGACAUGAGGAUCACCCAUGUAUGUUAUUAUCACGCGUGGCGCAA [Design 66] (Eterna round: R96, puzzle: Exclusion NG 1)	0.0148 µM	0.0148 µM	0.0187 µM			
UUUUAACAUGAGGAUCACCCAUGUGAGGAUAUCGAAAUUUAUAUUAAUAUUAAUAAUUCGAGAAGGCACAUUUU [JMF 21] (puzzle: Exclusion 1)				0.117 µM		
GCGUAGUAUGUAGGAUAUCGGUCAGUUUCUGAUCGAGAAGGACAUGAGGAUCACCCAUGUAAAUUGCCCGCUUUGUGGGUACGC [JL ENG1 3.60] (Eterna round: R96, puzzle: Exclusion NG 1)	0.0593 µM	0.0191 µM	0.0225 µM			
CCUCUACAUGAGGAUCACCCAUGUGAGGAUAUCUCGGAACAACCACUUAAGGCACUCCAGAGAAGGCACGUGUA [Onsote] (puzzle: Exclusion 1)				0.0155 µM		
AAGAAACAUGAGGAUCACCCAUGUGAGGAUAUGAGUAAGAAAAGAAAAGAAAGAAGAAUCAGAAGGCACAAAGG [salish99-ex1_r3_048] (puzzle: Exclusion 1)				0.0383 µM	0.0552 µM	0.0383 µM
GCUGCAAGAGGAUAUACAUGAGGAUCACCCAUGUGAAAUUAUAGUGAGGAAAUGAAAAGUAGAAGGCUUGUAGA [Mod of Mat 15 - Jieux - Exclusion 3] (Eterna round: R97, puzzle: Exclusion 3)	0.0866 µM		0.0381 µM			
UUUAGUUCAGGAUAUGUAGAUUUUAACAUGAGGAUCACCCAUGUAGAUCCUGAAUUAACUACAGAAGGGAACAUUC [Exclusion 5: 2:c] (puzzle: Exclusion 5)				0.0209 µM		
AAUAACAGAGGAUAUACUGUUUUAUGUGUUUGUUAUUUUAAACAUGAGGAUCACCCAUGUAGAAGGCUGAGUAA [JMF 30] (puzzle: Exclusion 2)				0.025 µM		
CGAAGUAGAAACCGAUCCUACAUGAGGAUCACCCAUGUAGCAAGACGUGCACGCGAAGCUCGUCAGACUACCAGAAA [salish99_TOv1_r3_016] (puzzle: Sensor v3, turn-off variant 1)				0.213 µM	0.2 µM	0.303 µM
GUGCAAUGAGGAUAUACGUAGGUGAAAAUCUGUGUGCUCCUACAUGAGGAUCACCCAUGUAGAAGGCAUGUCAC [LRO-Excl2-16] (puzzle: Exclusion 2)				0.016 µM		
GCUGCGCGAGGAUAUGCGGUUUGUGCUUUGGGCCCUGGCGUACAUGAGGAUCACCCAUGUAGAAGGCGUGUGGG [Apr-15 SS2-51] (puzzle: Exclusion 2)				0.0328 µM		
CUUUUGUGAGGAUAUCAGUAUUAAAUAAAUAAAAUUACUACUGAGAAGGCACAUGAGGAUCACCCAUGUUCCUC [salish99_ex3_r3_074] (puzzle: Exclusion 4)				0.0375 µM		
UAUUAGCAAGCCAAUGGGUACAUGAGGAUCACCCAUGUGCUCGUCUUAUAAGGUACUGUGACGAAAGUCACGGUACC [mod--Eli10] (Eterna round: R97, puzzle: Sensor, turn-off variant 1)	0.0167 µM		0.0177 µM			
UUCCAGACAGGAUAUCUAGUGAGCAACAUGAGGAUCACCCAUGUGACCAUCACCGCCCGCAGAGAAGGGUCAACAG [Inbilaus] (puzzle: Exclusion 5)				0.0411 µM	0.0554 µM	0.0402 µM
UCGCUCCGUGUAGGAUAUCGUUGUACCCUGCGGCGAGAAGGACAUGAGGAUCACCCAUGUAUGUUAUUAUCACGCGUGGCGCAA [Design 69] (Eterna round: R96, puzzle: Exclusion NG 1)	0.0159 µM	0.0134 µM	0.0183 µM			
CUGGUCCGAGGAUAUAUUAUGUGAAACAUGAGGAUCACCCAUGUUAUAUGAUGGAUGUAAAUAGAAGGCGGACUAG [JL-ex5-3.14] (puzzle: Exclusion 5)				0.0363 µM	0.0276 µM	0.0403 µM
GAAAAGGUAGGAUAUACGAAAAAAAAGGAUAGAAAAAAAACACAUGAGGAUCACCCAUGUAGAAGGACCAAAAG [salish99_ex2_r3_066] (puzzle: Exclusion 2)				0.0255 µM	0.0352 µM	0.0233 µM
UUUUUGUGAGGAUAUCAGUAGUAAAUAAAUAAAAUUACUACUGAGAAGGCACAUGAGGAUCACCCAUGUUCCUU [salish99_ex3_r3_090] (puzzle: Exclusion 4)				0.014 µM		
AGUACUGACACGUUGGUGUUAGUACAAUAAGCUUGUGACACAUGAGGAUCACCCAUGUCCUCAUAAGCUCGUCUUAU [salish99_TOv2_r2_094] (Eterna round: R96, puzzle: Sensor v3, turn-off variant 2)	0.0229 µM	0.468 µM	0.0254 µM			
UCGUGUAUAGAGGAUAUAUUAAUAUUUAAAACAAUAGAAGGCUAAACAUGAGGAUCACCCAUGUAUUUGGUUUU [JR_Ex6_Sub054] (Eterna round: R97, puzzle: Exclusion 6)	0.0584 µM		0.0209 µM			
